{"source": "patent US20210230286A1", "about": "(published 2021)", "molecular_target": "T1, PD-L1 protein (human, UniProt Q9NZQ7 19-238, limits assumed)", "T1 construct": "Plate-coated recombinant protein; also called human PD-L1 protein", "T1 sequence (Q9NZQ7 19-238 limits assumed)": "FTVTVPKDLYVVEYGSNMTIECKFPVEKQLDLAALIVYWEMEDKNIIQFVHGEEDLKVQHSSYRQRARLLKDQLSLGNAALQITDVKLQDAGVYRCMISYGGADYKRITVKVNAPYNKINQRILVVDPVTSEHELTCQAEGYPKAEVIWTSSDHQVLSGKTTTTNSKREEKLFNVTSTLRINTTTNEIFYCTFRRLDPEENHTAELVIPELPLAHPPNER", "experiment": "ELISA: PD-L1 coated at 2 ug/ml, FITC-labelled PPLC titrated, HRP anti-FITC detection, OD 410 nm", "method": "A 96-well ELISA plate was coated with 2μg/ml PD-L1 protein at 4° C. overnight. […] After incubation, HRP-conjugated anti-FITC antibody was added, incubated for 1 h, and then ABTS coloring solution was added. The OD value at 410 nm was measured using a M5 microplate reader, and GraphPad Prism 6 was used for plotting and analysis.", "note": "Where no end group is shown, it is not given here.", "data": [{"binder": "VSVSHFQKVWVV (also: FITC label, attachment not given here, Chemically synthesized peptide; The FITC-labelled form was used in the direct ELISA, flow cytometry and confocal assays; also called FITC-labeled PPLC)", "note": "[PPLC peptide labeled with FITC]", "values": [{"measurement": "Kd", "value": 750, "unit": "nM"}]}]}
